B1: Cryptic beta-glucoside bgl operon antiterminator (Escherichia coli (strain K12)), P11989 (parent)
chain: MNMQITKILNNNVVVVIDDQQREKVVMGRGIGFQKRAGERINSSGIEKEYALSSHELNGRLSELLSHIPLEVMATCDRIISLAQERLGKLQDSIYISLTDHCQFAIKRFQQNVLLPNPLLWDIQRLYPKEFQLGEEALTIIDKRLGVQLPKDEVGFIAMHLVSAQMSGNMEDVAGVTQLMREMLQLIKFQFSLNYQEESLSYQRLVTHLKFLSWRILEHASINDSDESLQQAVKQNYPQAWQCAERIAIFIGLQYQRKISPAEIMFLAINIERVRKEH

Variants of: B1
Details: with pthp_ecoli ptsH

Row | effect of a mutation on the interaction | Variant
1 | increasing interaction | H160Y

Variants of: B1
Details: with pthp_ecoli ptsH
Remark: another data set of the same source

Row | effect of a mutation on the interaction | Variant
2 | increasing interaction | D100N

Variants of: B1
Details: with pthp_ecoli ptsH
Remark: another data set of the same source

Row | effect of a mutation on the interaction | Variant
3 | increasing interaction | H208R

Variants of: B1
Details: with pt1_ecoli ptsI

Row | effect of a mutation on the interaction | Variant
4 | increasing interaction | H208R

Variants of: B1
Details: with pt1_ecoli ptsI
Remark: another data set of the same source

Row | effect of a mutation on the interaction | Variant
5 | decreasing interaction | H208R
